Experimental data taken from IntAct's records for PubMed 25910212.

Key:
cap2_human CAP2 [1] = target: cap2_human CAP2 (UniProt P40123)
cap2_human CAP2 [2] = target: cap2_human CAP2 (UniProt P40123); remark: listed apart in the source
cof2_human CFL2 = cof2_human CFL2 (UniProt Q9Y281)
KRT40 = KRT40 (UniProt Q6A162)
tpp2_human TPP2 = tpp2_human TPP2 (UniProt P29144)
goga2_human GOLGA2 [3] = target: goga2_human GOLGA2 (UniProt Q08379)
cep70_human CEP70 = target: T1, cep70_human CEP70 (UniProt Q8NHQ1)
T1 sequence: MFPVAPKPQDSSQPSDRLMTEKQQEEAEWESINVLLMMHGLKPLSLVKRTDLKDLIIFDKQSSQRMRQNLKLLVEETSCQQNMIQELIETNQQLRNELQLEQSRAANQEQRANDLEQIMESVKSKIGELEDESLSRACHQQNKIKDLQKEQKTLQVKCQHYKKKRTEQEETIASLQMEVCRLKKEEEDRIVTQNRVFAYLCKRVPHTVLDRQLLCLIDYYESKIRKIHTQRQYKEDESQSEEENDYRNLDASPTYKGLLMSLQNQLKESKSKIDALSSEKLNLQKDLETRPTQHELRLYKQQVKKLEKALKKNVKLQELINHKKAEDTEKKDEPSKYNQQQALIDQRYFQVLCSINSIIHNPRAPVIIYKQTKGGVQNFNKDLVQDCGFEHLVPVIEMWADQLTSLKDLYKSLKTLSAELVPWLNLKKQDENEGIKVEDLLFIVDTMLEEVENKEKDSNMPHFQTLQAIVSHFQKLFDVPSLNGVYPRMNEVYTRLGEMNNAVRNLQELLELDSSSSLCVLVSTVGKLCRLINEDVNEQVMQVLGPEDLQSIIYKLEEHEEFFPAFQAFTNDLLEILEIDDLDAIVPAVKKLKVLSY

tsg10_human TSGA10 = tsg10_human TSGA10 (UniProt Q9BZW7)
tfcp2_human TFCP2 = tfcp2_human TFCP2 (UniProt Q12800)
fsd2_human FSD2 = target: T2, fsd2_human FSD2 (UniProt A1L4K1)
T2 sequence: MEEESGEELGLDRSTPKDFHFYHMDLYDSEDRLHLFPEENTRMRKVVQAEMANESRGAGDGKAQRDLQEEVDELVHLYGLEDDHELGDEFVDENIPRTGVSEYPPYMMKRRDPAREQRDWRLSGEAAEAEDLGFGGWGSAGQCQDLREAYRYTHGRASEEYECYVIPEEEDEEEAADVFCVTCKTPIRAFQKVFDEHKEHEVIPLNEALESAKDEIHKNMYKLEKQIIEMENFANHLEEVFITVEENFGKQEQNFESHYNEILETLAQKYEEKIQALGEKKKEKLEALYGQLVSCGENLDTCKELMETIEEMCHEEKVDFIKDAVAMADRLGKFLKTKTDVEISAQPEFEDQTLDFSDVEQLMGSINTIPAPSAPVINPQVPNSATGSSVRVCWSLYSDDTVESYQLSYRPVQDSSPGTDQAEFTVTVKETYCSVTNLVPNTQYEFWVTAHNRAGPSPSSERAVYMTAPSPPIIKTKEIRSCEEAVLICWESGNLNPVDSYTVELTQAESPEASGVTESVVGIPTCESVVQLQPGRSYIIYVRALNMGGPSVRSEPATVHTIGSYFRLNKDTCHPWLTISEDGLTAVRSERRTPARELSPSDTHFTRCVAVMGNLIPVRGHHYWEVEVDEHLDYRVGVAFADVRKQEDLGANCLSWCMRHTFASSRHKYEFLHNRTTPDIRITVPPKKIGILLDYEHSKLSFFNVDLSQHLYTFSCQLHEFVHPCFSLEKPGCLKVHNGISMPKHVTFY

hem1_human ALAS1 = hem1_human ALAS1 (UniProt P13196)
kash5_human KASH5 = target: T3, kash5_human KASH5 (UniProt Q8N6L0)
T3 sequence: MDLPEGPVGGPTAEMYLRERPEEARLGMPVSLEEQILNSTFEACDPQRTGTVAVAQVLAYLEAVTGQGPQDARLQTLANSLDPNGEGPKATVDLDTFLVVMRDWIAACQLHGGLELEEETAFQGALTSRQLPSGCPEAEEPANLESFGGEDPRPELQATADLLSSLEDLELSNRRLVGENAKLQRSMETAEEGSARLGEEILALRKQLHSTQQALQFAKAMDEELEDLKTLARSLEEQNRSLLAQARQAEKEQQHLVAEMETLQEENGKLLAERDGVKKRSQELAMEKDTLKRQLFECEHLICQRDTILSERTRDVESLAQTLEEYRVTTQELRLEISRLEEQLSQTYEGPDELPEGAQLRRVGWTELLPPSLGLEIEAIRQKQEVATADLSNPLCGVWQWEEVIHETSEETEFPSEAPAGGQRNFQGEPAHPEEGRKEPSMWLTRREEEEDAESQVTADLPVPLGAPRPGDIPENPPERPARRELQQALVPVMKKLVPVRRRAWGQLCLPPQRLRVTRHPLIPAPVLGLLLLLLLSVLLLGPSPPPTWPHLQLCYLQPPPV

MTUS2, Q5JR59-3 [4] = target: MTUS2, Q5JR59-3
Sequence of MTUS2, Q5JR59-3 (Q5JR59 other isoform, or with tags, fused parts or gaps): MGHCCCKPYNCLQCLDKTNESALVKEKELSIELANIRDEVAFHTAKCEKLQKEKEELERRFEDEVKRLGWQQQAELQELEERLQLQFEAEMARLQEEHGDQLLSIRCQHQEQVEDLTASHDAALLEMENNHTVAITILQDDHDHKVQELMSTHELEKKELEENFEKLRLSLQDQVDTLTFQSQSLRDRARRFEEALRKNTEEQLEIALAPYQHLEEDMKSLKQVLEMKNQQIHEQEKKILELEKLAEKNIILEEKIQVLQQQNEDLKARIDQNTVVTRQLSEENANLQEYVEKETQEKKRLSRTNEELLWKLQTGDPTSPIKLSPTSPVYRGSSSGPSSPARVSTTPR

CAGE1, Q8TC20-4 [5] = target: CAGE1, Q8TC20-4
Sequence of CAGE1, Q8TC20-4 (Q8TC20 other isoform, or with tags, fused parts or gaps): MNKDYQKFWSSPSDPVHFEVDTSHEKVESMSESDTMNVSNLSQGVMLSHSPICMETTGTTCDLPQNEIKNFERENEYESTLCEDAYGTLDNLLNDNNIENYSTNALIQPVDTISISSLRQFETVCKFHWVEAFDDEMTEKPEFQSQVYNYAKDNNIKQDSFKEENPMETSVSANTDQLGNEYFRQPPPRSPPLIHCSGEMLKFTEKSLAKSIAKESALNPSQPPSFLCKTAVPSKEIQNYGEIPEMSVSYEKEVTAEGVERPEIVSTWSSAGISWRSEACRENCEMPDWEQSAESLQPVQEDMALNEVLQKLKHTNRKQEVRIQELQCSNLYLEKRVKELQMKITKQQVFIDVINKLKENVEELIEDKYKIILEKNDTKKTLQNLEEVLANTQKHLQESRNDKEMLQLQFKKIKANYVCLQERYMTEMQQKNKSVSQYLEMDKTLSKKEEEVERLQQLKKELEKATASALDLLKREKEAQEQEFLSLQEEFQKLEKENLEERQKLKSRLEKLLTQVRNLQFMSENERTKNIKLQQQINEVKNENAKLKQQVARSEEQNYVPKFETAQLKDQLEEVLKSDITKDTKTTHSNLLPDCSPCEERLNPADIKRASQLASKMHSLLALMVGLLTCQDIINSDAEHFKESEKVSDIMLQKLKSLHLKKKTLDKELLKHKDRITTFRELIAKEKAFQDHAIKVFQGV

kxdl1_human KXD1 = kxdl1_human KXD1 (UniProt Q9BQD3)
Sequence of kxdl1_human KXD1 (Q9BQD3 whole entry): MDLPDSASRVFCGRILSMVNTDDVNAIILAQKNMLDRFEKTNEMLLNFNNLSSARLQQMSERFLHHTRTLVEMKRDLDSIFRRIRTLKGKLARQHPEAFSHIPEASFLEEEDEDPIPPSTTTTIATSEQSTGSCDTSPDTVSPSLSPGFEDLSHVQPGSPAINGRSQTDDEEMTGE

ifit3_human IFIT3 [6] = target: ifit3_human IFIT3 (UniProt O14879)
Sequence of ifit3_human IFIT3 (O14879 whole entry): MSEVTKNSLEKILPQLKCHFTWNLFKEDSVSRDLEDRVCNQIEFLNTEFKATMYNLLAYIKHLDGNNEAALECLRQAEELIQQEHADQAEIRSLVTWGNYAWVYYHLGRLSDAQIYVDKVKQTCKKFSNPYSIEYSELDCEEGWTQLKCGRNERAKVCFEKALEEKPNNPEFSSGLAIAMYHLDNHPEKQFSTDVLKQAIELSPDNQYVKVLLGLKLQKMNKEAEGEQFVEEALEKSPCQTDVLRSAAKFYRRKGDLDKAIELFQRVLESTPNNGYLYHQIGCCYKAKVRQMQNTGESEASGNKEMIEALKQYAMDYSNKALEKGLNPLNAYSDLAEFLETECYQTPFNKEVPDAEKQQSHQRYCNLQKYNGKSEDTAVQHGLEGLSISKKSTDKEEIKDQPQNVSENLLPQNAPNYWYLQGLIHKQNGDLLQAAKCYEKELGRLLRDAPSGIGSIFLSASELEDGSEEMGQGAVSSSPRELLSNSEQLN

syce1_human SYCE1 [7] = target: syce1_human SYCE1 (UniProt Q8N0S2)
Sequence of syce1_human SYCE1 (Q8N0S2 whole entry): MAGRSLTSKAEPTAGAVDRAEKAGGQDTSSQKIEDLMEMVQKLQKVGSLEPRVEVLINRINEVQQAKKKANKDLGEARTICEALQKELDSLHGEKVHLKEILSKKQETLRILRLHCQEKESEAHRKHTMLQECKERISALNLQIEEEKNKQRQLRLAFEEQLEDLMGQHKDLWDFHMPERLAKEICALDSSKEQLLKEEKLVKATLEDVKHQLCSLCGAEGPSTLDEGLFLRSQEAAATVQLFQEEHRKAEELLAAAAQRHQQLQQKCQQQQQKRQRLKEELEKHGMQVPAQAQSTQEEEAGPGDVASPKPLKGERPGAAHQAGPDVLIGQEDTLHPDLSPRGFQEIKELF

CAGE1, Q8TC20-4 [8] = target: CAGE1, Q8TC20-4; remark: listed apart in the source
tfpt_human TFPT = tfpt_human TFPT (UniProt P0C1Z6)
Sequence of tfpt_human TFPT (P0C1Z6 whole entry): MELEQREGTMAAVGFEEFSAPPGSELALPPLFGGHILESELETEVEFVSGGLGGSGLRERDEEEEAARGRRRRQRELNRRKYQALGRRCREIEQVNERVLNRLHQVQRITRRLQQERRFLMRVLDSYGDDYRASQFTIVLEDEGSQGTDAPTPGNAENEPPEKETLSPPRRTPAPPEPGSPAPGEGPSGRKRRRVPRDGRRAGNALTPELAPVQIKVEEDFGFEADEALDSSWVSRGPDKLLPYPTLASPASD

ifit3_human IFIT3 [9] = target: ifit3_human IFIT3 (UniProt O14879); remark: listed apart in the source
md1l1_human MAD1L1 = md1l1_human MAD1L1 (UniProt Q9Y6D9)
Sequence of md1l1_human MAD1L1 (Q9Y6D9 whole entry): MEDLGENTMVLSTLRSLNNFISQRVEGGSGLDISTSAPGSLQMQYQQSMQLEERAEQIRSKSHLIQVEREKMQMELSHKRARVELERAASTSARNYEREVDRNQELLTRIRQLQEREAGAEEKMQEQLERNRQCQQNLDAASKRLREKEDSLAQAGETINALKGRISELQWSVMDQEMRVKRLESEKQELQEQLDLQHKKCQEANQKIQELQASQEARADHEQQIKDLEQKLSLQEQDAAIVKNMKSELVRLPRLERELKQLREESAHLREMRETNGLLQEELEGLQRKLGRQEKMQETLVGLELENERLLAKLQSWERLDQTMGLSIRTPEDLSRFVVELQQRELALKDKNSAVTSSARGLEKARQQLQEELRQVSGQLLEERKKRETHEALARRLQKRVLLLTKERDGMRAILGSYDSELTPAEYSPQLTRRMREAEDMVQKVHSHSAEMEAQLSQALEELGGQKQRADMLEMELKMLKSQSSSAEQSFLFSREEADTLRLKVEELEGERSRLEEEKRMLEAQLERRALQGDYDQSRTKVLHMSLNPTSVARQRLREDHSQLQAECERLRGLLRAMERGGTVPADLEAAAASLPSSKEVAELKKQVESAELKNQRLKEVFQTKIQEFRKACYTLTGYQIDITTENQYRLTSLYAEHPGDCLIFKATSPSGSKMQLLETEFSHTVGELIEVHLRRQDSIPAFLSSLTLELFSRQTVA

goga2_human GOLGA2 [10] = target: goga2_human GOLGA2 (UniProt Q08379); remark: listed apart in the source
syce1_human SYCE1 [11] = target: syce1_human SYCE1 (UniProt Q8N0S2); remark: listed apart in the source
MTUS2, Q5JR59-3 [12] = target: MTUS2, Q5JR59-3; remark: listed apart in the source

Sequence of Tropomyosin alpha-1 chain (Homo sapiens), P09493-10 V95A (P09493 other isoform, or with tags, fused parts or gaps V95A): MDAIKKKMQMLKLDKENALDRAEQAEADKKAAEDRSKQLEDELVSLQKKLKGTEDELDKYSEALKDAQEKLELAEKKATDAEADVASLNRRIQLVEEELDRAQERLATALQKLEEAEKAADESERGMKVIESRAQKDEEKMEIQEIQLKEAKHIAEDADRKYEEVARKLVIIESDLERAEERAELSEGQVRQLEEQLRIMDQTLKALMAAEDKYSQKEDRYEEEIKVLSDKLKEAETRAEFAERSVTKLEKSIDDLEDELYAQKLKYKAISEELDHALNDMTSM
Sequence of Tropomyosin alpha-1 chain (Homo sapiens), P09493-10 D175N (P09493 other isoform, or with tags, fused parts or gaps D175N): as the sequence (P09493 other isoform, or with tags, fused parts or gaps V95A) above
Sequence of goga2_human GOLGA2 (Q08379 whole entry): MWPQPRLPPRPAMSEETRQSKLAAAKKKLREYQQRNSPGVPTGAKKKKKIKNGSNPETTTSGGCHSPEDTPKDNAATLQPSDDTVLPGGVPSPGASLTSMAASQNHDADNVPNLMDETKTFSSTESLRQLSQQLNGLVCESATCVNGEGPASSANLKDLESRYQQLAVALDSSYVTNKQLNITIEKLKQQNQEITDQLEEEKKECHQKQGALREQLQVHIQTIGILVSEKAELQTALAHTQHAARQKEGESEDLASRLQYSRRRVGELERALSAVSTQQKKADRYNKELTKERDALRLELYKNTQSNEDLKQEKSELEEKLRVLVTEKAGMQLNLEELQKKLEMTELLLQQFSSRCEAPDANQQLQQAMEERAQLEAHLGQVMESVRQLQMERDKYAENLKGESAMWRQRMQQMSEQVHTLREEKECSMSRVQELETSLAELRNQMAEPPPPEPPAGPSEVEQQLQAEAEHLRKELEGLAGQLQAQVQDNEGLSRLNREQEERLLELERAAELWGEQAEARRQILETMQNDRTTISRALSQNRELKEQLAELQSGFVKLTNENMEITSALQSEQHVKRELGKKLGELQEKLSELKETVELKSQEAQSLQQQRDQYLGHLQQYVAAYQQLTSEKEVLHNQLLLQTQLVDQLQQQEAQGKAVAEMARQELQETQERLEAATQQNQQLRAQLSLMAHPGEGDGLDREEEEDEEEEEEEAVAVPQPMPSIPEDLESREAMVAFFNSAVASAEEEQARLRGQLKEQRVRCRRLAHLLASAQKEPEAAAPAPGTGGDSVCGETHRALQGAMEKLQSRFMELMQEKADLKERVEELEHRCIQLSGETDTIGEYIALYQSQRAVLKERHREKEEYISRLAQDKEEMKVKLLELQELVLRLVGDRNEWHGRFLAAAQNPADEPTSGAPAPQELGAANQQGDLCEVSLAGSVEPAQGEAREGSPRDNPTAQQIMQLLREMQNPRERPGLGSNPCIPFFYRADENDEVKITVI
Sequence of TNNT1, P13805-3 (P13805 other isoform, or with tags, fused parts or gaps): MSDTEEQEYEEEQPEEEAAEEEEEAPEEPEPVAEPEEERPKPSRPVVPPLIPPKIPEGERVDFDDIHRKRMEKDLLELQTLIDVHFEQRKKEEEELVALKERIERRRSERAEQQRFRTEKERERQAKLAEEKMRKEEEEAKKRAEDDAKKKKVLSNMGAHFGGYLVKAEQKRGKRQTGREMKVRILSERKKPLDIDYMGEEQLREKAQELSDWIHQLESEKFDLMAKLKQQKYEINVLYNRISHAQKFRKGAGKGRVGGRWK
Sequence of Cytochrome c (Homo sapiens), P99999 G42S (P99999 whole entry G42S): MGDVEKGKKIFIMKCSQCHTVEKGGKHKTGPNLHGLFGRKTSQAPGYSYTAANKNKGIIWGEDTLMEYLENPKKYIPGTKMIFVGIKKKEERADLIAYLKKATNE

“Actin, cytoplasmic 1 (Homo sapiens) (from UniProt P60709) R183W” was tested, and the “effect of a mutation on the interaction” value (cap2_human CAP2 [1]) was “causing an interaction”, the “effect of a mutation on the interaction” value (cap2_human CAP2 [2]) was “with no effect” and the “effect of a mutation on the interaction” value (cof2_human CFL2) was “with no effect”.

For “Cytochrome c (Homo sapiens), P99999 G42S”, the “effect of a mutation on the interaction” value (KRT40) was “with no effect”.

For “DNA polymerase beta (Homo sapiens) (from UniProt P06746) R137Q”, the “effect of a mutation on the interaction” value (tpp2_human TPP2) was “with no effect”.

For “Parafibromin (Homo sapiens) (from UniProt Q6P1J9) R91P”, the “effect of a mutation on the interaction” value (goga2_human GOLGA2 [3]) was “disrupting interaction strength”, the “effect of a mutation on the interaction” value (cep70_human CEP70) was “disrupting interaction strength” and the “effect of a mutation on the interaction” value (tsg10_human TSGA10) was “disrupting interaction strength”. For the same substance, the “effect of a mutation on the interaction” value (tfcp2_human TFCP2) was “disrupting interaction strength”, the “effect of a mutation on the interaction” value (fsd2_human FSD2) was “disrupting interaction strength” and the “effect of a mutation on the interaction” value (hem1_human ALAS1) was “disrupting interaction strength”. The “effect of a mutation on the interaction” value (kash5_human KASH5) was “disrupting interaction strength” and the “effect of a mutation on the interaction” value (MTUS2, Q5JR59-3 [4]) was “disrupting interaction strength”.

In the case of “Tropomyosin alpha-1 chain (Homo sapiens), P09493-10 D175N”, the “effect of a mutation on the interaction” value (CAGE1, Q8TC20-4 [5]) is reported as “causing an interaction”, the “effect of a mutation on the interaction” value (kxdl1_human KXD1) is reported as “with no effect” and the “effect of a mutation on the interaction” value (TNNT1, P13805-3) is reported as “with no effect”. For the same substance, the “effect of a mutation on the interaction” value (ifit3_human IFIT3 [6]) was “causing an interaction”, the “effect of a mutation on the interaction” value (syce1_human SYCE1 [7]) was “with no effect” and the “effect of a mutation on the interaction” value (CAGE1, Q8TC20-4 [8]) was “with no effect”. For the same substance, the “effect of a mutation on the interaction” value (tfpt_human TFPT) was “with no effect”, the “effect of a mutation on the interaction” value (ifit3_human IFIT3 [9]) was “with no effect” and the “effect of a mutation on the interaction” value (md1l1_human MAD1L1) was “with no effect”. For the same substance, the “effect of a mutation on the interaction” value (goga2_human GOLGA2 [10]) was “with no effect”.

For “Tropomyosin alpha-1 chain (Homo sapiens), P09493-10 V95A”, the “effect of a mutation on the interaction” value (kxdl1_human KXD1) was “with no effect”, the “effect of a mutation on the interaction” value (TNNT1, P13805-3) was “with no effect” and the “effect of a mutation on the interaction” value (syce1_human SYCE1 [7]) was “disrupting interaction strength”. The “effect of a mutation on the interaction” value (CAGE1, Q8TC20-4 [8]) was “with no effect”, the “effect of a mutation on the interaction” value (tfpt_human TFPT) was “with no effect” and the “effect of a mutation on the interaction” value (ifit3_human IFIT3 [9]) was “with no effect”. For the same substance, the “effect of a mutation on the interaction” value (md1l1_human MAD1L1) was “with no effect”, the “effect of a mutation on the interaction” value (goga2_human GOLGA2 [10]) was “disrupting interaction strength” and the “effect of a mutation on the interaction” value (syce1_human SYCE1 [11]) was “with no effect”.

With “Zinc finger protein 624 (Homo sapiens), Q9P2J8 K135N” the “effect of a mutation on the interaction” value (MTUS2, Q5JR59-3 [12]) was “with no effect”.
